Results published in US20210030836A1 (SHANGHAI INSTITUTE OF NUTRITION AND HEALTH CHINESE ACADEMY …, published 2021).

Biological target: T1, ATM, phosphorylated (activated) (human, UniProt Q13315 2-3056, phosphorylated (activated state; site not given))
T1 construct: Endogenous protein co-immunoprecipitated from PSC27 cell lysates; also called p-ATM
Test: IP with p-TAK1 antibody from lysates of bleomycin-treated PSC27 cells, Western blot (FIG. 2)

T1 sequence (Q13315 2-3056 limits assumed): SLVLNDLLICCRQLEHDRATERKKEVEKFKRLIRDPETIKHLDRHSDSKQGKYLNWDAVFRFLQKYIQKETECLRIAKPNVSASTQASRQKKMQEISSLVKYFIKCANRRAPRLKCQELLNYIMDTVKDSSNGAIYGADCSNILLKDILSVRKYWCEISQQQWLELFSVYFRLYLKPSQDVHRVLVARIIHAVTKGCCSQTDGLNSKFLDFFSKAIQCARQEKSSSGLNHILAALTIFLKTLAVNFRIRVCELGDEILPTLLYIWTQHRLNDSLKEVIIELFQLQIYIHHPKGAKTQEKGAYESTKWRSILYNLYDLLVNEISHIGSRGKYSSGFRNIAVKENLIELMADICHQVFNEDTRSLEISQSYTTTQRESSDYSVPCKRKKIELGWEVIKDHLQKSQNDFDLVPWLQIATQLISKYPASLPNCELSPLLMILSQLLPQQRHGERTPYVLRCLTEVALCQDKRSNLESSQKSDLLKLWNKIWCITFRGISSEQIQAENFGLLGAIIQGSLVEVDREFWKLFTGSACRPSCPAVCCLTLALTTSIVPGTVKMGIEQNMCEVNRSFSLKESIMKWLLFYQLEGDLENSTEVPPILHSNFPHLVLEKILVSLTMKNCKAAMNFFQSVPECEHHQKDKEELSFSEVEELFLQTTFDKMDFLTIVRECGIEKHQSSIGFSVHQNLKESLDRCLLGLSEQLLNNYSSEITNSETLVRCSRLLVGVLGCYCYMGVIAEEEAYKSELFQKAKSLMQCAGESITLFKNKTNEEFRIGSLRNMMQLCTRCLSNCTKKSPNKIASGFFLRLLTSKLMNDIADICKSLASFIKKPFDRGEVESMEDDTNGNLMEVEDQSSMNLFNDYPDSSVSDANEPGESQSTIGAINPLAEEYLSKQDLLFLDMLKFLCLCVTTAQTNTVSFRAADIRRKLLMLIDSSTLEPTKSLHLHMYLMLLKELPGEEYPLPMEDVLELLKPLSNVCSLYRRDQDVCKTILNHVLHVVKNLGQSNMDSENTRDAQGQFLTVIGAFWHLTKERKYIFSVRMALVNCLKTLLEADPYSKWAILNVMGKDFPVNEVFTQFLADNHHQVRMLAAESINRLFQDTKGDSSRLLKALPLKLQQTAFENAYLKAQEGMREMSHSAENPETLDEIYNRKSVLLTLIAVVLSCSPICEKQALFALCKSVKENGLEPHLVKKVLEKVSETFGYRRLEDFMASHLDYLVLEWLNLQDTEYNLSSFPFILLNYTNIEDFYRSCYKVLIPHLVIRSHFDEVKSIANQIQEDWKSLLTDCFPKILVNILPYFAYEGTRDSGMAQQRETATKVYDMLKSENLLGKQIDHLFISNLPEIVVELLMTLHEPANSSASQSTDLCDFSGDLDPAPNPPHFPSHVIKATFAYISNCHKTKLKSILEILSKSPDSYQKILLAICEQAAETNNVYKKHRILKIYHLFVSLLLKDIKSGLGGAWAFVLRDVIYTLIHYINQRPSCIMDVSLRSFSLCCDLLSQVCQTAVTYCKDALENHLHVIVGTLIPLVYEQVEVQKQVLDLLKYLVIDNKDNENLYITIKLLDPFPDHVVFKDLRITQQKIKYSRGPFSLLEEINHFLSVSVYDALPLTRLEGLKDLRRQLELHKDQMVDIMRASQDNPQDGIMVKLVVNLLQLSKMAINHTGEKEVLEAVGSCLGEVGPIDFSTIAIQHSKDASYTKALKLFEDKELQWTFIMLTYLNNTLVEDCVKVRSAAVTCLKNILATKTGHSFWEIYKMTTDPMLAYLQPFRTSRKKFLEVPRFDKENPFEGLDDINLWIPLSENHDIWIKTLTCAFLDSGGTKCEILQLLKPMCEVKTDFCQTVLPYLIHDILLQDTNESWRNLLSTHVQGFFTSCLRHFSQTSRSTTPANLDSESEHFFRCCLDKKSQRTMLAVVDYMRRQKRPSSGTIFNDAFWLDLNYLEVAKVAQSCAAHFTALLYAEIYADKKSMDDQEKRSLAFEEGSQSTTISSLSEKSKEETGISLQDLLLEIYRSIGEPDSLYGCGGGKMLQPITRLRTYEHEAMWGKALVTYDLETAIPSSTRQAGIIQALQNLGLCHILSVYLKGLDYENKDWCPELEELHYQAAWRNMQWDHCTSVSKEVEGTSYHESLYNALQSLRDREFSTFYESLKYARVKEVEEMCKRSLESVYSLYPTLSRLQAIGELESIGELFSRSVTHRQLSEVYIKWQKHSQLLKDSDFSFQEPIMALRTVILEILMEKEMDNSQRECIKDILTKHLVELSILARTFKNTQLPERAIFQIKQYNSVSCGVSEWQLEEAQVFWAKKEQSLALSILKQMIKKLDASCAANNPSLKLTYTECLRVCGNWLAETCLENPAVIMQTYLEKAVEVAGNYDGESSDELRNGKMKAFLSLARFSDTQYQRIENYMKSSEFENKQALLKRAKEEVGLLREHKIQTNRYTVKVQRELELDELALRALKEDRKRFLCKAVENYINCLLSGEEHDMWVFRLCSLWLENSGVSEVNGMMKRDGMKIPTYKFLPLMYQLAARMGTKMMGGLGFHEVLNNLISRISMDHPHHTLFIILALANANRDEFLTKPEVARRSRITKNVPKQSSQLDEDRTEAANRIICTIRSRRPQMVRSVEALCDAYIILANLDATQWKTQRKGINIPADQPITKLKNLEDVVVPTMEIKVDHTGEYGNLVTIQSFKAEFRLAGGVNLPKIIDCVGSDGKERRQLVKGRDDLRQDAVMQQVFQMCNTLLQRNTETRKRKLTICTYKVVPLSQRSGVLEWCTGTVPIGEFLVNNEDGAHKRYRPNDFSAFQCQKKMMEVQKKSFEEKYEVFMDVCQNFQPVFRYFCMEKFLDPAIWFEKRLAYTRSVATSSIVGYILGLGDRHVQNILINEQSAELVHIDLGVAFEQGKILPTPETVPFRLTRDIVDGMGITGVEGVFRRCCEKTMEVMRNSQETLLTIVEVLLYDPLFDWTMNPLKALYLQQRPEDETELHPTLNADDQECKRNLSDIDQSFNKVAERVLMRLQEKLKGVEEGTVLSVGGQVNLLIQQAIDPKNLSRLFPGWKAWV

B1: Transforming growth factor kinase 1 (TAK1), phosphorylated (activated) (enzyme, human, UniProt O43318 1-606, looked up)
chain: MSTASAASSSSSSSAGEMIEAPSQVLNFEEIDYKEIEVEEVVGRGAFGVVCKAKWRAKDVAIKQIESESERKAFIVELRQLSRVNHPNIVKLYGACLNPVCLVMEYAEGGSLYNVLHGAEPLPYYTAAHAMSWCLQCSQGVAYLHSMQPKALIHRDLKPPNLLLVAGGTVLKICDFGTACDIQTHMTNNKGSAAWMAPEVFEGSNYSEKCDVFSWGIILWEVITRRKPFDEIGGPAFRIMWAVHNGTRPPLIKNLPKPIESLMTRCWSKDPSQRPSMEEIVKIMTHLMRYFPGADEPLQYPCQYSDEGQSNSATSTGSFMDIASTNTSNKSDTNMEQVPATNDTIKRLESKLLKNQAKQQSESGRLSLGASRGSSVESLPPTSEGKRMSADMSEIEARIAATTAYSKPKRGHRKTASFGNILDVPEIVISGNGQPRRRSIQDLTVTGTEPGQVSSRSSSPSVRMITTSGPTSEKPTRSHPWTPDDSTDTNGSDNSIPMAYLTLDHQLQPLAPCPNSKESMAVFEQHCKMAQEYMKVQTEIALLLQRKQELVAELDQDEKDQQNTSRLVQEHKKLLDENKSLSTYYQQCKKQLEVIRSQQQKRQGTS
modifications: phosphorylated (activated state; site not given)
notes: Endogenous protein immunoprecipitated with a p-TAK1 antibody from PSC27 cell lysates; also called p-TAK1
Question: Does B1 bind?
Answer: Result: no binding
